Source: US20230414780A1 (VECT HORUS, published 2023)
Like-named read-outs stand apart in the source and are kept apart here.

Tests used:
[1] = molecular target: T1, rhesus monkey transferrin receptor (rhTfR) fused to EGFP, on CHO cells (rhesus monkey); experiment: apparent Kd, flow cytometry, CHO cells
T1 construct: whole, on cells; also called rhesus monkey TfR
Outline: (§1)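 CHO cells expressing TfR-EGFP fusions, blocked in PBS/BSA 2%, then incubated with increasing VHH concentrations for 1 hr at 4° C. Bound VHH detected via anti-6His antibody and Alexa647 secondary, cells PFA-fixed, read by flow cytometry. Apparent Kd from nonlinear fit.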

[2] = molecular target: T2, mouse transferrin receptor (mTfR) fused to EGFP, on CHO cells (mouse, UniProt Q62351 1-763); experiment: apparent Kd, flow cytometry, CHO cells
T2 construct: whole, on cells; also called mouse TfR; CHO-mTfR-EGFP; not shown: EGFP
T2 sequence (Q62351 whole entry, the tested form may be a part): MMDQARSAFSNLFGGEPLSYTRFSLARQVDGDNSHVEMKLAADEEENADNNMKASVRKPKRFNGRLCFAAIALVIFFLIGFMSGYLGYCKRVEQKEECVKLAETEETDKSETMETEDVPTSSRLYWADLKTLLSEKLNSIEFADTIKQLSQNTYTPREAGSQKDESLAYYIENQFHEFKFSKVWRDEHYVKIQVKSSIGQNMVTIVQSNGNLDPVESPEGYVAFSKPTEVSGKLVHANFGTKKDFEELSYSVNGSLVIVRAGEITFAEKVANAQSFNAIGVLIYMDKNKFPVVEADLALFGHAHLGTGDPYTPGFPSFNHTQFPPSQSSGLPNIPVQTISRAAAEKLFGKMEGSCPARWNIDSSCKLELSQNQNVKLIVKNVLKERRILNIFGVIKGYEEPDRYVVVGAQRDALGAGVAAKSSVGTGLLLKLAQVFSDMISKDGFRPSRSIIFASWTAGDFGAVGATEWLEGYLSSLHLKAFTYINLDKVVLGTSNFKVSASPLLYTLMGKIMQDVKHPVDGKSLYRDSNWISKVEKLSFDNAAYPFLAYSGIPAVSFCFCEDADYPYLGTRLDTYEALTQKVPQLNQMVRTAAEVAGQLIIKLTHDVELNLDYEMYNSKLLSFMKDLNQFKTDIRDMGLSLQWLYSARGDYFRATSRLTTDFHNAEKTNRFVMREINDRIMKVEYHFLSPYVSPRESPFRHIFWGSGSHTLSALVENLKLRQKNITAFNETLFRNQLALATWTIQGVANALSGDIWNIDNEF
Outline: as §1

[3] = molecular target: T3, human transferrin receptor (hTfR) fused to EGFP, on CHO cells (human, UniProt P02786 1-760); experiment: apparent Kd, flow cytometry, CHO cells
T3 construct: whole, on cells; also called human TfR; CHO-hTfR-EGFP; not shown: EGFP from pEGFP-C1 vector, fused to the N-terminal (intracellular) end of hTfR
T3 sequence (P02786 whole entry, the tested form may be a part): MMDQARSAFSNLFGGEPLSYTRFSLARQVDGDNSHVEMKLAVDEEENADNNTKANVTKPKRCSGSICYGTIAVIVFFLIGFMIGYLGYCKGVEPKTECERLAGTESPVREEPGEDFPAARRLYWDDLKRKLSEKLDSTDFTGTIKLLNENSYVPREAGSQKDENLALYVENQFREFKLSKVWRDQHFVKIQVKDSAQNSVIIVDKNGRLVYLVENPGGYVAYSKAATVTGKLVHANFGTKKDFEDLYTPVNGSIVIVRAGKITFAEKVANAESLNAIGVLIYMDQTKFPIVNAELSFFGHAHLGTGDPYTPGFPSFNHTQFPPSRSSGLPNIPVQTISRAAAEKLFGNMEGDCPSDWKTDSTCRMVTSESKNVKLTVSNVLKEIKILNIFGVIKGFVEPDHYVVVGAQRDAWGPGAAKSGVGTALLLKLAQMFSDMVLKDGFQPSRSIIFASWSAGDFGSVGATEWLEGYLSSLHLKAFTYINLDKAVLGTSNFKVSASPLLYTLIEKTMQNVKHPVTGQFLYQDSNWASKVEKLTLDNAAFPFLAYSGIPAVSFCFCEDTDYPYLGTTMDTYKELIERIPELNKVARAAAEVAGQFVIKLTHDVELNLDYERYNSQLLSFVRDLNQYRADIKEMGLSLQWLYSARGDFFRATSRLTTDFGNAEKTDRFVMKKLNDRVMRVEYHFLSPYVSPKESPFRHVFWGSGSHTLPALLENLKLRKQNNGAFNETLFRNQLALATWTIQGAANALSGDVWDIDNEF
Outline: as §1

[4] = molecular target: T3, human transferrin receptor (hTfR) fused …; experiment: competition flow cytometry on CHO-hTfR-EGFP cells, 4 C; VHH competitor in dilution series, phage-C5 tracer at EC80, anti-M13-A647
Method: (§2) FIGS. 17A-17D: Competition assays between VHHs and phage-VHHs. CHO-hTfR-EGFP cells were incubated 1 hr at 4° C. with VHHs (competitors) at increasing concentrations. Phage-VHHs (tracers) were then added at EC80 and incubated for 1 more hr. Phage-VHHs were detected with an anti-M13-A647 antibody (1/200). Fluorescence levels were assessed using flow cytometry. The ratio of fluorescence intensity for each point was normalized with the corresponding EGFP signal (receptor expression) and gave rise to the arbitrary unit. Data are presented as mean±SEM of independent experiments.
(§3) To evaluate whether selected VHHs compete one with the other for binding to the TfR receptor, competition assays using flow cytometry experiments were performed. All experiments were performed in 96 well plates using 2×10⁵ cells/well, at 4° C. with shaking. CHO cell line expressing the hTfR fused to EGFP was saturated with PBS/BSA 2% solution during 30 min to avoid nonspecific binding, followed by incubation with VHH (competitors) at increasing concentrations for 1 hr. Then, phage-VHHs (tracers) at EC80 were added and incubated 1 hr more. To detect the phage-VHHs, cells were washed twice with PBS/BSA 2% and incubated for 1 hr with an Alexa647-conjugated anti-M13 antibody. […] Fluorescence levels were assessed using an Attune NxT flow cytometer (Thermo Fisher Scientific). […]

[5] = molecular target: T3, human transferrin receptor (hTfR) fused …; experiment: as above; remark: listed apart in the source
Method: as §2, §3

B1: VHH A (C5) (VHH)
VHH: EVQLVESGGGVVQPGGSLKLSCVASGTDFSINFIRWYRQAPGKQREFVAGFTATGNTNYADSMKGRFTISRDNTKNAVYLQIDSLKPEDTAVYYCYMLDKWGQGTQVTVSS
notes: form with the C-terminal myc-His6 tag (x = 1), since the VHHs were detected with anti-6His or anti-cMyc; the same holds for m12 to m126
[1]
  Kd: 4.9 nM
[2]
  Kd: 50 nM
[3]
  Kd: 2.7 nM
[4]
  IC50 (read off the curve): ~50 nM
[5]
  IC50 (read off the curve): ~50 nM
